Results: US20120082661A1 (Biogen, published 2012)
Changes are numbered by the printed parent chain.

T1: human BCMA (B cell maturation antigen) (human, UniProt Q02223 1-184)
T1 chain: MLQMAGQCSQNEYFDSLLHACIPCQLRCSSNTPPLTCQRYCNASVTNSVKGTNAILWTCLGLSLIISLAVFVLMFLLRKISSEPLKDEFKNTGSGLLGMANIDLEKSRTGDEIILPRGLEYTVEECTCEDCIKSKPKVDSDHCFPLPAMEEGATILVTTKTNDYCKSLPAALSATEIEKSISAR

B1: chC12A3.2 (antibody, human IgG1, kappa, V domains shown)
VH: QIQLVQSGPELKKPGETVKISCKASGYTFRHYSMNWVKQAPGKGLKWMGRINTESGVPIYADDFKGRFAFSVETSASTAYLVINNLKDEDTASYFCSNDYLYSLDFWGQGTTLTVSS
VL: DIVLTQSPPSLAMSLGKRATISCRASESVTILGSHLIYWYQQKPGQPPTLLIQLASNVQTGVPARFSGSGSRTDFTLTIDPVEEDDVAVYYCLQSRTIPRTFGGGTKLEIKR
B2: chC13F12.1 (antibody, human IgG1, kappa, V domains shown)
VH: B1 VH with R30T, S55T, V57E, I59L, V72L, D88N, S93T, Y94F, L104C, F106Y
VL: B1 VL
B3: chC11D5.3 (antibody, human IgG1, kappa, V domains shown)
VH: QIQLVQSGPELKKPGETVKISCKASGYTFTDYSINWVKRAPGKGLKWMGWINTETREPAYAYDFRGRFAFSLETSASTAYLQINNLKYEDTATYFCALDYSYAMDYWGQGTTLTVSS
VL: B1 VL with Y38H
B4: chA7D12.2 (antibody, human IgG1, kappa, V domains shown)
VH: QIQLVQSGPDLKKPGETVKLSCKASGYTFTNFGMNWVKQAPGKGFKWMAWINTYTGESYFADDFKGRFAFSVETSATTAYLQINNLKTEDTATYFCARGEIYYGYDGGFAYWGQGTLVTVSA
VL: DVVMTQSHRFMSTSVGDRVSITCRASQDVNTAVSWYQQKPGQSPKLLIFSASYRYTGVPDRFTGSGSGADFTLTISSVQAEDLAVYYCQQHYSTPWTFGGGTKLDIKR

Molecular target: T1, human BCMA (B cell maturation antigen)
Assay: cell-based or functional assay

| Binder | % Killing at 1 nM (ADCC of U266 cells, PBMC effectors, LDH release) |
| --- | --- |
| B1 | 32% |
| B2 | 20% |
| B3 | 18% |
| B4 | 10% |

Molecular target: T1, human BCMA (B cell maturation antigen)
Assay: cell-based or functional assay
Remark: another data set of the same source

| Binder | % Killing at 1 nM (ADCC of JJN-3 cells, PBMC effectors, LDH release) |
| --- | --- |
| B1 | 5% |
| B2 | 3% |
| B4 | 20% |
